Our source for the SPA pIC50 and IC50 values is patent publication US7109299.

Bridge positions count the residues as written; N and C are the ends. Ends that are not written are not given here.

The target in assay [1] is T1, IL-5RαECD, extracellular domain (ECD) of the human IL-5 receptor α chain, soluble (human) (UniProt Q01344).
T1 sequence (Q01344 whole entry, looked up): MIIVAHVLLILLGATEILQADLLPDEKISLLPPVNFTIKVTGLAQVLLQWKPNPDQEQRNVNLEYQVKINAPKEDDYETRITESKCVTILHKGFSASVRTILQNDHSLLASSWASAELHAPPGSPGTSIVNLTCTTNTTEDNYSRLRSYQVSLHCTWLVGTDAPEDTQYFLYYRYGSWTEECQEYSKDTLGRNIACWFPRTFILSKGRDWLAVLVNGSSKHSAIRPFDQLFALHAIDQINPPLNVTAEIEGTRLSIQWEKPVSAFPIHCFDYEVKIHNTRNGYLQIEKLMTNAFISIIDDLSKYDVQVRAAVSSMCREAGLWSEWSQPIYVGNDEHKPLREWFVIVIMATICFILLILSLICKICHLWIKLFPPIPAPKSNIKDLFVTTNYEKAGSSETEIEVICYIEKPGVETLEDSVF
Put plainly: scintillation proximity competition assay, dimer against 20 pM [125I] IL-5 on IL-5Rα coated beads.

The target of assay [2] is T1, IL-5RαECD, extracellular domain (ECD) of the human IL-5 receptor α chain, soluble (human). Put plainly: competition with [125I] IL-5 for binding to immobilised IL-5Rα ECD; peptide after 10 days, disulfide-linked dimer.

B1: dimer of (H)-…-(NH2) (peptide)
peptide: H-EGYVCVEFARCPTCR-NH2
modifications: disulfide (positions not given here); also: dimer, intramolecular and intermolecular disulfides, places not given here
For B1, in assay [1], the SPA pIC50 amounted to 6.4.

B2: dimer of (H)-…-(NH2) (peptide)
peptide: H-EGYVCVEWARCPTCR-NH2
modifications: disulfide (positions not given here); also: dimer, intramolecular and intermolecular disulfide linkages, places not given here
The molecule B2 showed an SPA pIC50 in assay [1] of 8.1.

B3: dimeric form of AF17362 (spontaneously formed disulfide-linked dimer) (peptide)
peptide: TGGGDGYVCVEWARCPTCK
modifications: disulfide 15-18; also: homodimer linked by a Cys9-Cys9 interchain disulfide, disulfide at 9, other end not in the chain
As to B3, the IC50 in assay [2] amounted to 0.55 nM.
